Test results published in patent publication US20060051395A1 (AFFINERGY, published 2006).
Ends that are not written are not given here.

B1: AFF-2012 (peptide)
peptide: SSSVDLYFPLKGDVVSR
modifications: not fully specified (residues 1, 2, 16, 17, C-terminus); also: C-terminal Lys(ε-biotin), linker before it not given here
notes: Synthetic form of the peptide of clone AP02-59; not shown: C-terminal biotinylated lysine; any linker before it is not spelled out for this peptide
B2: AFF-2009 (peptide)
peptide: SSFEPLRFPLKGVPVSR
modifications: not fully specified (residues 1, 2, 16, 17, C-terminus); also: C-terminal Lys(ε-biotin), linker before it not given here
notes: Synthetic form of the peptide of clone AP02-60; not shown: C-terminal biotinylated lysine; any linker before it is not spelled out for this peptide

Biological target: T1, Bone Morphogenic Protein 2 (BMP-2) (UniProt P12643 283-396)
T1 construct: Bought from Medtronic; In the phage ELISAs it was biotinylated with NHS-biotin (about one biotin per molecule) and held on streptavidin plates; In the peptide assays it was unlabelled
Test: estimated affinity from solution-phase binding of biotinylated peptide and BMP-2, capture on streptavidin plate, anti-BMP antibody detection

T1 sequence (P12643 283-396 limits assumed): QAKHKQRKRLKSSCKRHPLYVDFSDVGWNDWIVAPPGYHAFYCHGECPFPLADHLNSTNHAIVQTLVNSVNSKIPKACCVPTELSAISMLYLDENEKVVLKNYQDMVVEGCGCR

Binder	Kd
B1	9 nM
B2	10 nM
